The test addresses gHgLgO249 complex of 131stop-gO249 virions (human cytomegalovirus, strain TB40/E). Nature of the test: co-IP + pull-down; gB co-precipitated with gHgLgO from 131stop and 131stop-gO249 virion lysates using anti-gH antibody 14-4b or PDGFRα-Fc; WB, ImageJ; gO precipitation levels normalized and relative gB levels determined.

“glycoprotein gB of HCMV virions (natural protein)”: the fold change of co-precipitated gB against gHgLgOWT came out at 4 fold.

Values taken from publication PMC12316387.
